How the values were obtained:
HLA-A*68:02 [1] = assay: IEDB peptide-MHC binding, cellular MHC/competitive/fluorescence; ≥ and ≤ were set here for values at or beyond the usual limits of such assays; details: source organism: Vaccinia virus WR
HLA-A*02:01 [2] = assay: as above
HLA-A*02:02 = assay: as above
HLA-A*02:03 = assay: as above
HLA-A*02:06 [3] = assay: IEDB peptide-MHC binding, purified MHC/competitive/radioactivity; ≥ and ≤ were set here for values at or beyond the usual limits of such assays
HLA-A*02:06 [4] = assay: IEDB peptide-MHC binding, cellular MHC/competitive/fluorescence; ≥ and ≤ were set here for values at or beyond the usual limits of such assays
HLA-A*68:02 [5] = assay: IEDB peptide-MHC binding, purified MHC/competitive/radioactivity; ≥ and ≤ were set here for values at or beyond the usual limits of such assays
HLA-A*02:01 [6] = assay: as above
[7] = source organism: Vaccinia virus WR
[8] = source organism: Influenza A virus
[9] = source organism: Mammarenavirus guanaritoense
[10] = source organism: Mammarenavirus choriomeningitidis

Sequence | IC50 (HLA-A*02:01 [2]; [7]) [µM] | IC50 (HLA-A*02:02; [7]) [µM] | IC50 (HLA-A*02:03; [7]) [µM] | IC50 (HLA-A*02:06 [3]; [7]) [µM] | IC50 (HLA-A*02:06 [4]; [7]) [µM] | IC50 (HLA-A*68:02 [5]; [7]) [µM] | other results
VTPEYIKDL | 9.23 | 10.4 | ≥ 70 | 1.76 |  |  | IC50 (HLA-A*68:02 [1]): ≥ 70 µM
NTGMGMYYPT | 28.8 | 23.4 | 21 |  | 11.3 | 2.15 | 
ATCALVSDCA | 55.8 | 34.7 | 23.4 |  | 9.14 | 0.018 | 
LTSNCTRTT | ≥ 70 | ≥ 70 | 29.6 |  | 40.7 | 2.02 | 
TAFFNTCKPT | 37.9 | 31.6 | 22.3 |  | 33 | 0.535 | 
NTVSSFQV |  |  |  |  |  |  | IC50 (HLA-A*02:01 [2]; [8]): 52.7 µM; IC50 (HLA-A*02:02; [8]): ≥ 70 µM; IC50 (HLA-A*02:03; [8]): 60.1 µM; IC50 (HLA-A*68:02 [5]; [8]): 0.566 µM; IC50 (HLA-A*02:06 [3]; [8]): 4.48 µM
SAGFTATICL | 10.4 | 6.9 | 20.1 | 2.41 |  | 3.88 | 
EVIGLTTHCT | 24.8 | 10.5 | 14.9 |  | 12.2 | 0.017 | 
FANVISKIYT | 15.7 | 7.79 | 5.31 | 1.66 |  |  | IC50 (HLA-A*68:02 [1]): 5.49 µM
CVKYLLDNDI | 13 | 31.8 | 5.67 |  | 7.58 | 1.98 | 
KTEHCDDFM | 16.1 | 6.5 | 18.1 | 2.52 |  |  | IC50 (HLA-A*68:02 [1]): ≥ 70 µM
GVLHTKFWI |  | 16.6 | 12.3 | 0.417 |  |  | IC50 (HLA-A*68:02 [1]): 43.9 µM; IC50 (HLA-A*02:01 [6]; [7]): 2.71 µM
ETIQKDINI | ≥ 70 | 36.6 | 50.8 |  | 34.9 | 0.046 | 
NITHTNITTL | 10.1 | 10.4 | 5.02 |  | 8.17 | 4.91 | 
NVTVTHSV |  |  |  |  |  |  | IC50 (HLA-A*02:01 [2]; [8]): 22.6 µM; IC50 (HLA-A*02:02; [8]): 60.5 µM; IC50 (HLA-A*02:03; [8]): 14.6 µM; IC50 (HLA-A*02:06 [4]; [8]): 18.6 µM; IC50 (HLA-A*68:02 [5]; [8]): 1.27 µM
DTCGASINIT | 42.6 | 23.6 | ≥ 70 |  | ≥ 70 | 1.93 | 
PVVYHDDDNT | 11.7 | 9.14 | 26.8 | 1.35 |  |  | IC50 (HLA-A*68:02 [1]): 11.4 µM

Sequence | IC50 (HLA-A*02:01 [2]; [7]) [µM] | IC50 (HLA-A*02:02; [7]) [µM] | IC50 (HLA-A*02:03; [7]) [µM] | IC50 (HLA-A*02:06 [3]; [7]) [µM] | IC50 (HLA-A*02:06 [4]; [7]) [µM] | IC50 (HLA-A*68:02 [5]; [7]) [µM] | other results
ETVKMGAFM | ≥ 70 | 15 | 7.43 |  | 40.2 | 0.081 | 
HVLLPFYET |  | 16.4 | 18.6 | 1.74 |  | 0.924 | IC50 (HLA-A*02:01 [6]; [7]): 2.49 µM
EVRYIDITNI | 8.61 | 12.9 | 5.81 | 4.34 |  | 0.041 | 
STSNVITDQT | 39.1 | 53.6 | ≥ 70 |  | 10.8 | 0.077 | 
NAILHNIYRL |  | 5.61 | 10.2 | 0.576 |  | 0.724 | IC50 (HLA-A*02:01 [6]; [7]): 0.54 µM
HTKFWISDNT | ≥ 70 | 21.5 | 60.2 |  | ≥ 70 | 0.623 | 
SVDFVVNGHT | ≥ 70 | ≥ 70 | ≥ 70 |  | ≥ 70 | 1.34 | 
IAGLKIEEI | 23.2 | 7.66 | 6.09 | 1.97 |  |  | IC50 (HLA-A*68:02 [1]): 27.5 µM
IVPDADPPI |  | 5.08 | 10.7 | 0.274 |  | 1.52 | IC50 (HLA-A*02:01 [6]; [7]): 0.743 µM
ITLILSNKL | 6.79 | 5.11 | 17.1 | 0.396 |  |  | IC50 (HLA-A*68:02 [1]): 8.73 µM
IIDLLLPST | 5.65 | 15.1 | 10.3 | 1.12 |  |  | IC50 (HLA-A*68:02 [1]): ≥ 70 µM
CNYTRFWYI |  |  |  |  |  |  | IC50 (HLA-A*02:02; [9]): 10.1 µM; IC50 (HLA-A*02:03; [9]): 5.31 µM; IC50 (HLA-A*68:02 [5]; [9]): 0.344 µM; IC50 (HLA-A*02:01 [6]; [9]): 1.66 µM; IC50 (HLA-A*02:06 [3]; [9]): 0.258 µM
FSLGAAVKA |  |  |  |  |  |  | IC50 (HLA-A*02:01 [2]; [10]): 11 µM; IC50 (HLA-A*02:02; [10]): 6.47 µM; IC50 (HLA-A*02:03; [10]): 13.4 µM; IC50 (HLA-A*68:02 [5]; [10]): 1.78 µM; IC50 (HLA-A*02:06 [3]; [10]): 0.327 µM
QTVDFTDCRT | 40.1 | 30.5 | 54.3 | 3.65 |  | 0.033 | 
KADAVVADL |  | 5.14 | 12.4 | 2.21 |  |  | IC50 (HLA-A*68:02 [1]): 23.4 µM; IC50 (HLA-A*02:01 [6]; [7]): 3.96 µM
NVLSIAPI |  |  |  |  |  |  | IC50 (HLA-A*02:01 [2]; [8]): 8.52 µM; IC50 (HLA-A*02:02; [8]): 39.7 µM; IC50 (HLA-A*02:03; [8]): 17.4 µM; IC50 (HLA-A*68:02 [5]; [8]): 1.33 µM; IC50 (HLA-A*02:06 [3]; [8]): 2.34 µM

From the Immune Epitope Database (IEDB)
